Reference: patent US20140274782A1, “AFFINITY REAGENTS AND METHODS FOR DETECTION, PURIFICATION, AND PROTEOMIC ANALYSIS OF METHYLATED PROTEINS” (The Board of Trustees of the Leland Stanford Junior …, priority 2013, published 2014)

T1: G9a and GLP (Homo sapiens, UniProt Q96KQ7+Q9H9B1)
T1 sequence (Q96KQ7 2-1210 limits assumed): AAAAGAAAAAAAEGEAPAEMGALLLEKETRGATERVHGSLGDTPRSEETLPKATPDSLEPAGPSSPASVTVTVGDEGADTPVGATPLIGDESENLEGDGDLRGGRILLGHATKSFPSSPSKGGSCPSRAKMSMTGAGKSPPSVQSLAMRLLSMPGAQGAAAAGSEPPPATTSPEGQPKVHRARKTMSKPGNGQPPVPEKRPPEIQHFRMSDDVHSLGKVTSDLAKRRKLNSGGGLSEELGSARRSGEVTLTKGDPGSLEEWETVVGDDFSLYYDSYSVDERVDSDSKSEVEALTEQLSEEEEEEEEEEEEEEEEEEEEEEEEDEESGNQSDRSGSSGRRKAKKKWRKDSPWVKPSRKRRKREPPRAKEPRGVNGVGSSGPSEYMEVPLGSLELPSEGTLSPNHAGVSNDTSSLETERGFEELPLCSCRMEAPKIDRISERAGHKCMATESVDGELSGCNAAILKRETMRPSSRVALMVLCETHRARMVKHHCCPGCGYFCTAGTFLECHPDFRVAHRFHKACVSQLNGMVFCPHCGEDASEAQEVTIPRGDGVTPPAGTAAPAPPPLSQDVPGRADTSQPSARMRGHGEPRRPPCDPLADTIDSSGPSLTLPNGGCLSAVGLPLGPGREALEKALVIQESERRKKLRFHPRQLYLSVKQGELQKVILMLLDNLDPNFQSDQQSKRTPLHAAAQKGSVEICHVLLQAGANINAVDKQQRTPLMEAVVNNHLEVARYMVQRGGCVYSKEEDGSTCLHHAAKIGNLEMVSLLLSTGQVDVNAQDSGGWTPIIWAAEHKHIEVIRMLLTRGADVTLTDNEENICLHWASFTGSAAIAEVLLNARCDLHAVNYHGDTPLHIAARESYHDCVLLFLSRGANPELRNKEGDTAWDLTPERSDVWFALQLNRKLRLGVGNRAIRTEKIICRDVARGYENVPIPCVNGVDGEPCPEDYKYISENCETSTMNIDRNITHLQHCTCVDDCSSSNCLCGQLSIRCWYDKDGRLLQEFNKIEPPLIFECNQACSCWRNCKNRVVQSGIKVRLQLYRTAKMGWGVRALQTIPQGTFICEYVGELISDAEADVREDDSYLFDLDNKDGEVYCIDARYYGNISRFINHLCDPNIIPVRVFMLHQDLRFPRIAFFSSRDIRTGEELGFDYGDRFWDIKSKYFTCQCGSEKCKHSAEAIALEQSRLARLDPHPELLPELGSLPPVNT
T1 sequence (Q9H9B1 2-1298 limits assumed): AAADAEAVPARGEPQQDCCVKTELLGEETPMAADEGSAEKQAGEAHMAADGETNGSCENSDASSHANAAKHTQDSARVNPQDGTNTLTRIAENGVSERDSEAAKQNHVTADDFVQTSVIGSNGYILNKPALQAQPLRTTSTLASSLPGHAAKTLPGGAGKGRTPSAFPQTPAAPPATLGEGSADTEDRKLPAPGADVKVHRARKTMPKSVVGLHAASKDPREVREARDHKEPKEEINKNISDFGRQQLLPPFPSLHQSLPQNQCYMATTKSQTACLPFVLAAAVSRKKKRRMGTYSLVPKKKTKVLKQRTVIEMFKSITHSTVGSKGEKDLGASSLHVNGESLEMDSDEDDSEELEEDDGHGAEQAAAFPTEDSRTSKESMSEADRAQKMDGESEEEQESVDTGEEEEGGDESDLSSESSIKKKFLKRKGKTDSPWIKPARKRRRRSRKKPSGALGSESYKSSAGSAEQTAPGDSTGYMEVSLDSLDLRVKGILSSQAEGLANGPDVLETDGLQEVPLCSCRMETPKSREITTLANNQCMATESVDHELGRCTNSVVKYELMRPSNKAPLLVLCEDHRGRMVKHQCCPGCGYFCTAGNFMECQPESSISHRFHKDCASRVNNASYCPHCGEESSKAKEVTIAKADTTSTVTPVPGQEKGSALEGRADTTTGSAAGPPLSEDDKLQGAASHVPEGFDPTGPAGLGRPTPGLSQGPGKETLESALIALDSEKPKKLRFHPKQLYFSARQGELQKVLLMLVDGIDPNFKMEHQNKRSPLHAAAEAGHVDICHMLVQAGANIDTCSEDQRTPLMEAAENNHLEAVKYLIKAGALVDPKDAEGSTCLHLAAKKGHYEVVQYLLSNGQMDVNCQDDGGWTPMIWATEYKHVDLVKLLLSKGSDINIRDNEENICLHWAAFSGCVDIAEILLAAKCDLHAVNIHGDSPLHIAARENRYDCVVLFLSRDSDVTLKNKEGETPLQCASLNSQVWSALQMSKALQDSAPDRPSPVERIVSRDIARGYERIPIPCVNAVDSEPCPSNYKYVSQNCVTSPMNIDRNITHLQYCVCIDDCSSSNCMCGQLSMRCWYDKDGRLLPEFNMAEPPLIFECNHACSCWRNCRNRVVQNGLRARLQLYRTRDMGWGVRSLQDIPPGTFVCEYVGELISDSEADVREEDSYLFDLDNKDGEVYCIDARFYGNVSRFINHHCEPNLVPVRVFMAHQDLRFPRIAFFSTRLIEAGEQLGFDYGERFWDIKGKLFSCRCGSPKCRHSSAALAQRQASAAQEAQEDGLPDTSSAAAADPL


Assays:
[1] = test system: 3×MBT domain of L3MBTL1; experiment: Triple SILAC pull-down, 3xMBT/3xMBTD355N ratio (cytoplasmic, nuclear and chromatin fractions of 293T cells); format: binding, human; conditions: SILAC ratio 3xMBT vs 3xMBTD355N pull-down, 293T cells, all values in log base 2; for 3xMBT/D355N UNC Heavy: experiment with UNC0638 in heavy SILAC media; for 3xMBT/D355N UNC Light: experiment with UNC0638 in light SILAC media;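 as to all read-outs here: proteins quantified with MaxQuant, requiring at least two unique peptides and quantification in both label directions, normalized to the mean of proteins from a digested loading control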
[2] = target: T1, G9a and GLP; experiment: Triple SILAC pull-down after UNC0638 treatment of 293T cells, DMSO/UNC0638 ratio of protein captured by 3×MBT; format: cell-based; design: endogenous in cells; host or cells: HEK 293T; conditions: all values in log base 2; for Relative to UNC0638 UNC Heavy / Relative to UNC0638 UNC Light: SILAC ratio DMSO relative to UNC0638, pull-down with 3xMBT; for Relative to UNC0638 UNC Heavy: UNC0638 in heavy SILAC media; for Relative to UNC0638 UNC Light: UNC0638 in light SILAC media; for Relative to UNC0638 Average: average of UNC Light and UNC Heavy experiments;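 as to all read-outs here: mass spectrometry (Q-Exactive) SILAC quantitation, DMSO/UNC0638 ratio computed after subtracting 3×MBTD355N mutant pull-down background, only proteins with at least twofold 3×MBT over mutant signal considered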

Relative to UNC0638 UNC Heavy [2]	Relative to UNC0638 UNC Light [2]	Relative to UNC0638 Average [2]	Molecule	3xMBT/D355N UNC Heavy [1]	3xMBT/D355N UNC Light [1]
0.09 log base 2	−0.02 log base 2	0.04 log base 2	DNAJC9 (protein, UniProt Q8WXX5 1-260, looked up) DnaJ homolog subfamily C …: MGLLDLCEEVFGTADLYRVLGVRREASDGEVRRGYHKVSLQVHPDRVGEGDKEDATRRFQILGKVYSVLSDREQRAVYDEQGTVDEDSPVLTQDRDWEAYWRLLFKKISLEDIQAFEKTYKGSEEELADIKQAYLDFKGDMDQIMESVLCVQYTEEPRIRNIIQQAIDAGEVPSYNAFVKESKQKMNARKRRAQEEAKEAEMSRKELGLDEGVDSLKAAIQSRQKDRQKEMDNFLAQMEAKYCKSSKGGGKKSALKKEKK	2.56 log base 2	1.85 log base 2
0.03 log base 2	0.07 log base 2	0.05 log base 2	PUF60 (protein, UniProt Q9UHX1 1-559, looked up) Poly(U)-binding-splicing …: MATATIALQVNGQQGGGSEPAAAAAVVAAGDKWKPPQGTDSIKMENGQSTAAKLGLPPLTPEQQEALQKAKKYAMEQSIKSVLVKQTIAHQQQQLTNLQMAAVTMGFGDPLSPLQSMAAQRQRALAIMCRVYVGSIYYELGEDTIRQAFAPFGPIKSIDMSWDSVTMKHKGFAFVEYEVPEAAQLALEQMNSVMLGGRNIKVGRPSNIGQAQPIIDQLAEEARAFNRIYVASVHQDLSDDDIKSVFEAFGKIKSCTLARDPTTGKHKGYGFIEYEKAQSSQDAVSSMNLFDLGGQYLRVGKAVTPPMPLLTPATPGGLPPAAAVAAAAATAKITAQEAVAGAAVLGTLGTPGLVSPALTLAQPLGTLPQAVMAAQAPGVITGVTPARPPIPVTIPSVGVVNPILASPPTLGLLEPKKEKEEEELFPESERPEMLSEQEHMSISGSSARHMVMQKLLRKQESTVMVLRNMVDPKDIDDDLEGEVTEECGKFGAVNRVIIYQEKQGEEEDAEIIVKIFVEFSIASETHKAIQALNGRWFAGRKVVAEVYDQERFDNSDLSA	1.71 log base 2	2.61 log base 2

More lines, now with the values behind:

Molecule	Relative to UNC0638 UNC Heavy [2]	Relative to UNC0638 UNC Light [2]	Relative to UNC0638 Average [2]	3xMBT/D355N UNC Heavy [1]	3xMBT/D355N UNC Light [1]
RAD21 (protein, UniProt O60216 1-631, looked up) Double-strand-break repair …: MFYAHFVLSKRGPLAKIWLAAHWDKKLTKAHVFECNLESSVESIISPKVKMALRTSGHLLLGVVRIYHRKAKYLLADCNEAFIKIKMAFRPGVVDLPEENREAAYNAITLPEEFHDFDQPLPDLDDIDVAQQFSLNQSRVEEITMREEVGNISILQENDFGDFGMDDREIMREGSAFEDDDMLVSTTTSNLLLESEQSTSNLNEKINHLEYEDQYKDDNFGEGNDGGILDDKLISNNDGGIFDDPPALSEAGVMLPEQPAHDDMDEDDNVSMGGPDSPDSVDPVEPMPTMTDQTTLVPNEEEAFALEPIDITVKETKAKRKRKLIVDSVKELDSKTIRAQLSDYSDIVTTLDLAPPTKKLMMWKETGGVEKLFSLPAQPLWNNRLLKLFTRCLTPLVPEDLRKRRKGGEADNLDEFLKEFENPEVPREDQQQQHQQRDVIDEPIIEEPSRLQESVMEASRTNIDESAMPPPPPQGVKRKAGQIDPEPVMPPQQVEQMEIPPVELPPEEPPNICQLIPELELLPEKEKEKEKEKEDDEEEEDEDASGGDQDQEERRWNKRTQQMLHGLQRALAKTGAESISLLELCRNTNRKQAAAKFYSFLVLKKQQAIELTQEEPYSDIIATPGPRFHII	0.07 log base 2	0.08 log base 2	0.07 log base 2	2.15 log base 2	1.49 log base 2
MARS (protein, UniProt P56192 1-900, looked up) Methionine--tRNA ligase, …: MRLFVSDGVPGCLPVLAAAGRARGRAEVLISTVGPEDCVVPFLTRPKVPVLQLDSGNYLFSTSAICRYFFLLSGWEQDDLTNQWLEWEATELQPALSAALYYLVVQGKKGEDVLGSVRRALTHIDHSLSRQNCPFLAGETESLADIVLWGALYPLLQDPAYLPEELSALHSWFQTLSTQEPCQRAAETVLKQQGVLALRPYLQKQPQPSPAEGRAVTNEPEEEELATLSEEEIAMAVTAWEKGLESLPPLRPQQNPVLPVAGERNVLITSALPYVNNVPHLGNIIGCVLSADVFARYSRLRQWNTLYLCGTDEYGTATETKALEEGLTPQEICDKYHIIHADIYRWFNISFDIFGRTTTPQQTKITQDIFQQLLKRGFVLQDTVEQLRCEHCARFLADRFVEGVCPFCGYEEARGDQCDKCGKLINAVELKKPQCKVCRSCPVVQSSQHLFLDLPKLEKRLEEWLGRTLPGSDWTPNAQFITRSWLRDGLKPRCITRDLKWGTPVPLEGFEDKVFYVWFDATIGYLSITANYTDQWERWWKNPEQVDLYQFMAKDNVPFHSLVFPCSALGAEDNYTLVSHLIATEYLNYEDGKFSKSRGVGVFGDMAQDTGIPADIWRFYLLYIRPEGQDSAFSWTDLLLKNNSELLNNLGNFINRAGMFVSKFFGGYVPEMVLTPDDQRLLAHVTLELQHYHQLLEKVRIRDALRSILTISRHGNQYIQVNEPWKRIKGSEADRQRAGTVTGLAVNIAALLSVMLQPYMPTVSATIQAQLQLPPPACSILLTNFLCTLPAGHQIGTVSPLFQKLENDQIESLRQRFGGGQAKTSPKPAVVETVTTAKPQQIQALMDEVTKQGNIVRELKAQKADKNEVAAEVAKLLDLKKQLAVAEGKPPEAPKGKKKK	0.15 log base 2	−0.08 log base 2	0.03 log base 2	1.87 log base 2	1.56 log base 2
